Measurements: patent publication US20240317847A1 (Bayer, published 2024)

Key:
human IL2Ra = biological target: T1, human IL2Ra (human, UniProt P01589 22-240, limits assumed); assay: ELISA on coated IL2Ra, signal ratio to isotype control at 1E-07 M antibody
T1 construct: coated on the ELISA plate; also called IL-2 receptor alpha
T1 sequence (looked up): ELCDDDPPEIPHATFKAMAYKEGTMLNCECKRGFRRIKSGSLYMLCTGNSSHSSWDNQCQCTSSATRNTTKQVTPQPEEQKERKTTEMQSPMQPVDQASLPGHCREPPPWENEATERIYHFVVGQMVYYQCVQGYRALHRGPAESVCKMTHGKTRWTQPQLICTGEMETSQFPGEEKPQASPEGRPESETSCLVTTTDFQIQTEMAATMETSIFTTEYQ
Protocol: IL2RA (Peprotech, Germany, #200-02RC) was coated at 1 or 0 μg/ml (buffer only control) in 30 μl coating buffer (Candor, #113500) per well on a 384 well microtiter plate (Maxisorb, Nunc, #460518) over night at 4-8° C. After two washes with 50 μl/well washing buffer (PBS+0.05% Tween, pH 7.4), the plates were incubated for two hours at room temperature with 50 μl/well SmartBlock (Candor, #113500). After blocking, the plates were washed three times with washing buffer. Then, a dilution series of the respective antibody (1E-7 [M] down to 2E-13 [M]) in PBS+0.05% Tween, 10% SmartBlock were added in 30 μl to the microtiter plate and incubated for 90 min at room temperature. After three additional washes, 30 μl anti mouse IgG HRP-conjugated antibody (Biotechne, HAF007), diluted 1:1000 in PBS+0.05% Tween (pH 7.4), were added per well and incubated for one hour. After three additional washes, a mixture of Amplex red (Invitrogen, #12222, 10 mM stock solution in DMSO) 1:1000 diluted in PBS and H2O2 (30%, Merck, #107209)) diluted 1:10000 in PBS were added as substrate with 30 μl per well and incubated for 20 min in the dark. Relative fluorescence was measured with a microtiter plate reader at 535/590 nm.
Bispecific antibodies were subjected to the experimental assay procedure described in Example 20. Ratios of the signals generated at an antibody concentration of 1E-07 [M] by the respective bispecific antibody versus those of an isotype control antibody were calculated and are shown in Table E29. The bispecific antibodies show no binding to IL-2 Ra.

murine IL-11 = biological target: T2, murine IL-11 (mouse, UniProt P47873 22-199); assay: Tri-complex ELISA, mIL-11 + mIL-11Ra-Fc + mgp130-Fc, inhibition of complex formation
T2 construct: Invigate recombinant protein; biotinylated when immobilized in the Di-complex ELISA; also called mIL11; mIL-11
T2 sequence: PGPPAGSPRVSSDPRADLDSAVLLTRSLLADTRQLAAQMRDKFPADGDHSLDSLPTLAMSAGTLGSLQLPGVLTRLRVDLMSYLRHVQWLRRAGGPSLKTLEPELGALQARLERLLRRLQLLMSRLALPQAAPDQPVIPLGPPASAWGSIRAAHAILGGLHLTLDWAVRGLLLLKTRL
Protocol: In the Tri-complex ELISA format IL-11 antibodies are tested for their ability to inhibit the formation of a complex consisting of murine or human gp130-Fc fusion protein, with murine or human IL-11, and a murine IL11RA-Fc fusion protein. The assay format was adapted according to FIG. 18 (a, b), depending on whether murine or human IL-11 IgG antibodies were tested.
Bispecific antibodies were subjected to the experimental assay procedure described in Example 19 and IC50 [M], respectively efficacy (%) were calculated accordingly.

B1: TPP-29697 (bispecific antibody, IgG1)
chain 1: QVQLVESGGGVVQPGRSLRLSCAASGFTFSHYDMHWVRQAPGKGLEWVAVISYHGSVKFYADSVKGRFTISRDNSKNTLYLQMNSLRAEDTAVYYCARTPGFHFDYWGQGTLVTVSSGGGGSGGGGSGGGGSQSVLTQPPSASGTPGQRVTISCSGSSSNIGSNYVSWYQQLPGTAPKLLIYYDDLRPSGVPDRFSGSKSGTSASLAISGLRSEDEADYYCSAWDDSLSGVVFGGGTKLTVLGGGGSGGGGSGGGGSGVECPPCPAPPVAGPSVFLFPPKPKDTLMISRTPEVTCVVVGVSHEDPEVKFNWYVDGVEVHNAKTKPREEQYNSTYRVVSVLTVLHQDWLNGKEYKCKVSNKQLPSPIEKTISKAKGQPREPQVYTLPPCRDELTKNQVSLWCLVKGFYPSDIAVEWESNGQPENNYKTTPPVLDSDGSFFLYSKLTVDKSRWQQGNVFSCSVMHEALHNHYTQKSLSLSPGK
chain 2: EVQLLESGGGLVQPGGSLRLSCAASGFTFSSYGMHWVRQAPGKGLEWVAVISYDGSYKYYADSVKGRFTISRDNSKNTLYLQMNSLRAEDTAVYYCAAGVPDYWGQGTLVTVSSGGGGSGGGGSGGGGSQSVLTQPPSASGTPGQRVTISCSGSSSNIGSDYDVHWYQQLPGTAPKLLIYSNEERPSGVPDRFSGSKSGTSASLAISGLRSEDEADYYCSAWDSSLSGPVFGGGTKLTVLGGGGSGGGGSGGGGSGVECPPCPAPPVAGPSVFLFPPKPKDTLMISRTPEVTCVVVGVSHEDPEVKFNWYVDGVEVHNAKTKPREEQYNSTYRVVSVLTVLHQDWLNGKEYKCKVSNKQLPSPIEKTISKAKGQPREPQVCTLPPSRDELTKNQVSLSCAVKGFYPSDIAVEWESNGQPENNYKTTPPVLDSDGSFFLVSKLTVDKSRWQQGNVFSCSVMHEALHNHYTQKSLSLSPGK
notes: scFv-kih-hIgG1 with Fc-silencing mutations; bispecific comprising CDRs of TPP-29528 and TPP-29519
Ratio IL-2Ra Binding Signal Antibody/Isotype Control (human IL2Ra): 0.8 ratio | Efficacy (%) (murine IL-11): 104% | IC50 (murine IL-11): 0.0622 nM

B2: TPP-29603 (bispecific antibody, IgG1)
chain 1: QVQLVESGGGVVQPGRSLRLSCAASGFTFSHYDMHWVRQAPGKGLEWVAVISYHGSVKFYADSVKGRFTISRDNSKNTLYLQMNSLRAEDTAVYYCARTPGFHFDYWGQGTLVTVSSGGGGSGGGGSGGGGSQSVLTQPPSASGTPGQRVTISCSGSSSNIGSNYVSWYQQLPGTAPKLLIYYDDLRPSGVPDRFSGSKSGTSASLAISGLRSEDEADYYCSAWDDSLSGVVFGGGTKLTVLGGGGSGGGGSGGGGSGVECPPCPAPPVAGPSVFIFPPKPKDVLTITLTPKVTCVVVDISKDDPEVQFSWFVDDVEVHTAQTQPREEQFNSTFRSVSELPIMHQDWLNGKEFKCRVNSAAFPAPIEKTISKTKGRPKAPQVYTIPPCKEQMAKDKVSLWCMITDFFPEDITVEWQWNGQPAENYKNTQPIMDTDGSYFVYSKLNVQKSNWEAGNTFTCSVLHEGLHNHHTEKSLSHSPGK
chain 2: EVQLLESGGGLVQPGGSLRLSCAASGFTFSSYGMHWVRQAPGKGLEWVAVISYDGSYKYYADSVKGRFTISRDNSKNTLYLQMNSLRAEDTAVYYCAAGVPDYWGQGTLVTVSSGGGGSGGGGSGGGGSQSVLTQPPSASGTPGQRVTISCSGSSSNIGSDYDVHWYQQLPGTAPKLLIYSNEERPSGVPDRFSGSKSGTSASLAISGLRSEDEADYYCSAWDSSLSGPVFGGGTKLTVLGGGGSGGGGSGGGGSGVECPPCPAPPVAGPSVFIFPPKPKDVLTITLTPKVTCVVVDISKDDPEVQFSWFVDDVEVHTAQTQPREEQFNSTFRSVSELPIMHQDWLNGKEFKCRVNSAAFPAPIEKTISKTKGRPKAPQVCTIPPPKEQMAKDKVSLSCAITDFFPEDITVEWQWNGQPAENYKNTQPIMDTDGSYFVVSKLNVQKSNWEAGNTFTCSVLHEGLHNHHTEKSLSHSPGK
notes: scFv-kih-mIgG1; bispecific comprising CDRs of TPP-29528 and TPP-29519
Ratio IL-2Ra Binding Signal Antibody/Isotype Control (human IL2Ra): 1.9 ratio | Efficacy (%) (murine IL-11): 98.5% | IC50 (murine IL-11): 0.17 nM
